In publication PMC11761711, “Insights into the flexibility of the domain‐linking loop in actinobacterial coproheme decarboxylase through structures and molecular dynamics simulations” (Protein Science : A Publication of the Protein Society, 2025):

Biological target: the molecule itself
Experiment: cryo-EM structure; apo-CdChdC, SEC-purified, 70 to 120 uM on grids, single-particle reconstruction with C5 symmetry, 2.27 A

B1: Corynebacterium diphtheriae coproheme decarboxylase (enzyme)
chain: MAEKLNFEELNSMQRYSQFAVFRAIPGALGSDRAEIVAQAQSFFDGLETAGKVEVRGIYDLAGCRAEADFMIWWIAEEFEEIQAAFARFRRETVLGQVSEVAWLGNSLHRPAEFNRSHLPSFIMGEIPGDWITVYPFVRSYDWYIMDPQKRRKILAEHGQAARDFPDVRANTVPAFALGDYEWMLAFEAPRLDRIVDLMHKMRYTEARLHVREETPFFTGRRVSEVSELVNVLP
notes: coproheme decarboxylase (ChdC) of Corynebacterium diphtheriae, wild type; Homopentamer; also called CdChdC; apo-CdChdC; source: recombinant, expressed and purified as described previously (Michlits et al. 2020); Ni2+ column, HRV 3C protease cleavage, SEC
  stoichiometry N: 5
